Test [1] concerns the target T1, rabTFPI K1K2 (rabbit, limits assumed).
T1 construct: also called Rabbit TFPI K1K2
T1 chain: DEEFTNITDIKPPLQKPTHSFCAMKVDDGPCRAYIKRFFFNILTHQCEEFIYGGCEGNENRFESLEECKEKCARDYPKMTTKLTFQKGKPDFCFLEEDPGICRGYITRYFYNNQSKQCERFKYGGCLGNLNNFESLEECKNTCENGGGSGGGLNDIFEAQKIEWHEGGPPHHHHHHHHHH
In words: SPR (summary table).

In test [2] the target is T1, rabTFPI K1K2. In words: ELISA, TFPI on streptavidin plate. (An ELISA detects its analyte on a solid surface through an enzyme-linked reagent.)
Test [3] has as its target T1, rabTFPI K1K2. Kind of test: SPR, antibody ligand, TFPI analyte. A general note: In SPR one partner is held on a chip, and binding of the other changes the refractive index at the surface.
For test [4], the target named is T1, rabTFPI K1K2. In words: ELISA, TFPI on streptavidin plate.
For test [5], the target named is T1, rabTFPI K1K2. Kind of test: SPR, antibody ligand, TFPI analyte.
For test [6], the target named is T1, rabTFPI K1K2. Kind of test: ELISA, TFPI on streptavidin plate.
Test [7] concerns the target T1, rabTFPI K1K2. Kind of test: SPR, antibody ligand, TFPI analyte.
Another test has as its target T2, cynTFPI K1K2 (cynomolgus monkey).
T2 construct: also called Cynomolgus Monkey TFPI K1K2; cyno TFPI K1K2
In words: SPR, antibody ligand, TFPI analyte.

Test [8] concerns the target T3, humTFPI K1K2 (human).
T3 construct: Biotinylated on the AviTag for ELISA; also called Human TFPI alpha K1K2; humTFPI K1K2-aviHis10
In words: SPR, antibody ligand, TFPI analyte.

The target in test [9] is T3, humTFPI K1K2. In words: SPR, antibody ligand, TFPI analyte. The source holds these as a separate data set.

Here are results for 8 molecules from patent EP4792830A2 (Pfizer Inc., dated 2026).

Like-named read-outs stand apart in the source and are kept apart here.

B1: hz4D8 (antibody, human IgG1, kappa, V domains shown)
VH: EVQLVESGGGLVQPGGSLRLSCAASGYTFTDYNLDWVRQAPGKGLEWVADINPINGATLYNQKFKGRFTISRDQAKNSLYLQMNSLRAEDTAVYYCARYYGDYDAMDYWGQGTLVTVSS
VL: DIQMTQSPSSLSASVGDRVTITCKASQDVHTAVAWYQQKPGKAPKLLIYWASTRHTGVPSRFSGSGSGTDYTLTISSLQPEDFATYYCQQHYTTPYTFGQGTKLEIKR
notes: humanized, human IgG1 3M / kappa; also called 4D8-Vk1.1 x VH1.4; 4D8 Vk 1.1 x VH 1.4
On to B1, for which binding with rabTFPI K1K2 [1] was characterised by a dissociation constant (Kd) of 502 pM. Moreover, in the test with rabTFPI K1K2 [2], a half-maximal response (EC50) required 71.6 pM. Moreover, in the test with rabTFPI K1K2 [3], the Kd – broadly, the equilibrium constant for the complex coming apart – came to 502 pM; the off-rate constant (koff) – broadly, a measure of how fast the partners let go of each other – worked out at 0.0029 s⁻¹; the kon – broadly, a measure of how fast the partners come together – was 3.16e+06 M⁻¹ s⁻¹.

B2: 6B7.c5 (antibody, human IgG1, kappa, V domains shown)
VH: EVLLQQSGPELVKPGSSVKIPCKASGYTFTDYTMDWVKQSHGKSLEWIGDINPSNGGSIYNRKFKGKATLTVDKSSSTAYMELRSLTSEDTAVYYCARMHYNYDGFPYWGQGTLVTVSA
VL: DIVMTQSHKFMSTSVGDRVSITCKASQDVITAVAWYQQKPGQSPKLLIYWASTRHTGVPVRFTGSGSGTDYTLTIISVQAEDLALYYCQQHYSTPYTFGGGTKLEIKA
notes: Mouse hybridoma antibody
Take B2: the EC50 (in general, the concentration at which the effect is half-maximal) with rabTFPI K1K2 [4] is 129 pM. In the test with rabTFPI K1K2 [5], this molecule displayed a dissociation constant (Kd) of 4950 pM, an off-rate constant (koff) of 0.00564 s⁻¹ and an on-rate (kon) of 1.14e+06 M⁻¹ s⁻¹.

B3: 4D8.b1 (antibody, mouse IgG1, kappa)
heavy: EVLLQQSGPELVKPGASVKIPCKASGYTFTDYNLDWVKQSHGKSLEWIGDINPINGATLYNQKFKGKATLTVDQSSSTAYMELRSLTSEDTAVYYCSIYYGDYDAMDYWGQGASVTVSSAKTTPPSVYPLAPGSAAQTNSMVTLGCLVKGYFPEPVTVTWNSGSLSSGVHTFPAVLQSDLYTLSSSVTVPSSTWPSETVTCNVAHPASSTKVDKKIVPRDCGCKPCICTVPEVSSVFIFPPKPKDVLTITLTPKVTCVVVDISKDDPEVQFSWFVDDVEVHTAQTQPREEQFNSTFRSVSELPIMHQDWLNGKEFKCRVNSAAFPAPIEKTISKTKGRPKAPQVYTIPPPKEQMAKDKVSLTCMITDFFPEDITVEWQWNGQPAENYKNTQPIMDTDGSYFVYSKLNVQKSNWEAGNTFTCSVLHEGLHNHHTEKSLSHSPGK
light: DIVMTQSHKFMSTSVGDRVSITCKASQDVHTAVAWYQQKPGQSPRLLIYWASTRHTGVPDRFTGCGSGTDYTLTISSVQAEDLALYYCQQHYTTPYTFGGGTKLEMKADAAPTVSIFPPSSEQLTSGGASVVCFLNNFYPKDINVKWKIDGSERQNGVLNSWTDQDSKDSTYSMSSTLTLTKDEYERHNSYTCEATHKTSTSPIVKSFNRNEC
notes: also called mouse 4d8.b1; TFPI 4D8
With B3, the EC50 with rabTFPI K1K2 [4] is 97.6 pM. Besides, in the test with rabTFPI K1K2 [5], the affinity, expressed as Kd, was 630 pM; the off-rate (koff) came out at 0.00126 s⁻¹; the kon came out at 2.01e+06 M⁻¹ s⁻¹.

B4: mu-hu 4D8 chimera (antibody, human IgG1, kappa)
heavy: EVLLQQSGPELVKPGASVKIPCKASGYTFTDYNLDWVKQSHGKSLEWIGDINPINGATLYNQKFKGKATLTVDQSSSTAYMELRSLTSEDTAVYYCSIYYGDYDAMDYWGQGASVTVSSASTKGPSVFPLAPSSKSTSGGTAALGCLVKDYFPEPVTVSWNSGALTSGVHTFPAVLQSSGLYSLSSVVTVPSSSLGTQTYICNVNHKPSNTKVDKKVEPKSCDKTHTCPPCPAPEAAGAPSVFLFPPKPKDTLMISRTPEVTCVVVDVSHEDPEVKFNWYVDGVEVHNAKTKPREEQYNSTYRVVSVLTVLHQDWLNGKEYKCKVSNKALPAPIEKTISKAKGQPREPQVYTLPPSREEMTKNQVSLTCLVKGFYPSDIAVEWESNGQPENNYKTTPPVLDSDGSFFLYSKLTVDKSRWQQGNVFSCSVMHEALHNHYTQKSLSLSPG
light: DIVMTQSHKFMSTSVGDRVSITCKASQDVHTAVAWYQQKPGQSPRLLIYWASTRHTGVPDRFTGCGSGTDYTLTISSVQAEDLALYYCQQHYTTPYTFGGGTKLEMKRTVAAPSVFIFPPSDEQLKSGTASVVCLLNNFYPREAKVQWKVDNALQSGNSQESVTEQDSKDSTYSLSSTLTLSKADYEKHKVYACEVTHQGLSSPVTKSFNRGEC
notes: Mouse variable regions on human IgG1 3M and human kappa constant regions; also called hu-mu 4D8 chimera; mouse-human chimeric antibody 4D8
B4: the EC50 with rabTFPI K1K2 [6] amounted to 68 pM. Also, in the test with rabTFPI K1K2 [7], the equilibrium dissociation constant (Kd) was 630 pM, the koff was determined as 0.00126 s⁻¹ and the kon came to 2.01e+06 M⁻¹ s⁻¹.

B5: 2A8 (antibody, human IgG1, lambda, V domains shown)
VH: QVQLVESGGGLVQPGGSLRLSCAASGFTFRSYGMSWVRQAPGKGLEWVSSIRGSSSSTYYADSVKGRFTISRDNSKNTLYLQMNSLRAEDTAVYYCARKYRYWFDYWGQGTLVTVSS
VL: DIELTQPPSVSVAPGQTARISCSGDNLRNYYAHWYQQKPGQAPVVVIYYDNNRPSGIPERFSGSNSGNTATLTISGTQAEDEADYYCQSWDDGVPVFGGGTKLTVLG
Regarding B5, the koff in the test with cynTFPI K1K2 is 0.0306 s⁻¹. In the test with rabTFPI K1K2 [3], this molecule had an equilibrium dissociation constant (Kd) of 1690 pM, a koff of 0.00123 s⁻¹ and a kon of 730000 M⁻¹ s⁻¹.

B6: 2A8-200 (antibody, human IgG1, lambda, V domains shown)
VH: QVQLVESGGGLVQPGGSLRLSCAASGFTFRSYGMDWVRQAPGKGLEWVSSIRGSRSSTYYADSVKGRFTISRDNSKNTLYLQMNSLRAEDTAVYYCARLYRYWFDYWGQGTLVTVSS
VL: DIELTQPPSVSVAPGQTARISCSGDNLRNYYAHWYQQKPGQAPVVVIFYDVNRPSGIPERFSGSNSGNTATLTISGTQAEDEADYYCQSWWDGVPVFGGGTKLTVLG
notes: also called Anti-TFPI-2A8-200
B6 registered an equilibrium dissociation constant (Kd) with rabTFPI K1K2 [1] of 145 pM. This molecule also registered a koff with humTFPI K1K2 [8] of 0.00381 s⁻¹. In the test with rabTFPI K1K2 [3], this molecule gave a Kd of 145 pM, a koff of 0.000277 s⁻¹ and an on-rate (kon) of 1.92e+06 M⁻¹ s⁻¹.

B7: 7A4.D9 (antibody, V domains shown)
VH: EVQLQQSGPELVKPGASVKMSCKASGYTFTSYVMHWVKQKPGQGLEWIGYLNPYNDGTKYNEKFKGKASLISDKSSSTVYMELSSLTSEDSAVYYCATTLLYAMDYWGQGSSVTVSS
VL: DIVLTQSPASLAVSLGQRATISCRASKSVSTSGYTYMHWYQQKPGQPPKLLIYLASNLESGVPARFSGSGSGTDFTLNIHPVEEEDAAAYYCQHIRELPFTFGSGTKLEIKA
notes: Mouse hybridoma antibody
With B7, the EC50 with rabTFPI K1K2 [4] was 88.7 pM. In the test with rabTFPI K1K2 [5], this molecule gave a dissociation constant Kd of 3550 pM, a koff of 0.0188 s⁻¹ and a kon of 5.3e+06 M⁻¹ s⁻¹.

B8: TFPI-24 (antibody, human IgG1, lambda, V domains shown)
VH: EVQLVESGGGSVQPGRSLRLSCAVSGLTIDNYAMQWVRQRPGKGLEWVSGISGNSRSIGYADSVKGRLTISRDNAKNSLYLQIDSLRADDTALYYCAIFLHESDYWGQGTLVTVSS
VL: QSVLTQPPSVSGTPGQRVTISCSGSTSNIGTMYVHWYQHVPGTAPKLLIYRNNHRPSGVPDRFSGSKSGTSGSLAISGLRSEDEADYYCLAWDDTLRAYVFGTGTKVTVLG
notes: Phage-derived, human IgG1-3M; also called mAb-TFPI-24; clone 24
Regarding B8, in the test with humTFPI K1K2 [9], binding was put at a Kd of 3680 pM, the koff amounted to 0.00971 s⁻¹ and the on-rate constant (kon) was determined as 918000 M⁻¹ s⁻¹.
